From publication PMC9482650, “Quantitative fragmentomics allow affinity mapping of interactomes” (Nature Communications, 2022)

T1: ARHGAP21, Q5T5U3
T1 sequence (Q5T5U3 45-169, limits assumed, looked up): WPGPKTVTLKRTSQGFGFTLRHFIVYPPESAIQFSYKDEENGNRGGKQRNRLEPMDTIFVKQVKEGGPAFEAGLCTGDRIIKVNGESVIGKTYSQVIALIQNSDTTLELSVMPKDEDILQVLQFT

T2: DFNB31_1, Q9P202
T2 sequence (Q9P202 135-233, limits assumed, looked up): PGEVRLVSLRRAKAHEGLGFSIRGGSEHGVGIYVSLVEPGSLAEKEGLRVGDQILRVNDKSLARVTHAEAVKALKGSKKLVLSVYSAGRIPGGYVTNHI

T3: DLG3_1, Q92796
T3 sequence (Q92796 125-227, limits assumed, looked up): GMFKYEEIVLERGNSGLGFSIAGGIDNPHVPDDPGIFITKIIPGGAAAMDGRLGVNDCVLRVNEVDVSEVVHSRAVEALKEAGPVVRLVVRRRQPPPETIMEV

T4: DLG3_3, Q92796
T4 sequence (Q92796 374-475, limits assumed, looked up): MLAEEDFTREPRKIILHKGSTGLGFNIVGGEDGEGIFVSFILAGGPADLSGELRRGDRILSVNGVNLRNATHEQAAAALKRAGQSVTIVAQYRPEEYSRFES

T5: LIN7B, Q9HAP6
T5 sequence (Q9HAP6 88-185, limits assumed, looked up): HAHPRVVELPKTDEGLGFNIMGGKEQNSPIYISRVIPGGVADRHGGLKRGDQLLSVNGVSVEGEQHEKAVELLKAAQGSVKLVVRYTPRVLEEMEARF

T6: MPDZ_12, O75970
T6 sequence (O75970 1857-1958, limits assumed, looked up): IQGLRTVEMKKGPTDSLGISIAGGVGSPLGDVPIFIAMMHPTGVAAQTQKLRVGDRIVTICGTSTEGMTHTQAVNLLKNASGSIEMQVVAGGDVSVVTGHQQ

T7: MPP7, Q5T2T1
T7 sequence (Q5T2T1 134-230, limits assumed, looked up): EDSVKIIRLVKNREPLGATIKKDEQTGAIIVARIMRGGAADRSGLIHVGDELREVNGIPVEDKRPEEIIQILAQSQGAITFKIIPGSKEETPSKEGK

T8: PDZD7_3, Q9H5P4
T8 sequence (Q9H5P4 857-944, limits assumed, looked up): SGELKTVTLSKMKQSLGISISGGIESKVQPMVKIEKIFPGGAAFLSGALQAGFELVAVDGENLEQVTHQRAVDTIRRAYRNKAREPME

T9: PDZRN3_1, Q9UPQ7
T9 sequence (Q9UPQ7 244-349, limits assumed, looked up): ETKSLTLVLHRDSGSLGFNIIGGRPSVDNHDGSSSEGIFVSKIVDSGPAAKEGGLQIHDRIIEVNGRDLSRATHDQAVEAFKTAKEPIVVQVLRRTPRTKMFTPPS

T10: RHPN1, Q8TCX5
T10 sequence (Q8TCX5 508-602, limits assumed, looked up): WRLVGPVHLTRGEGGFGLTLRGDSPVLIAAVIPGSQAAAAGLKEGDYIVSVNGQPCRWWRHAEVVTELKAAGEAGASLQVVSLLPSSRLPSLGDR

T11: SHANK1, Q9Y566
T11 sequence (Q9Y566 658-767, limits assumed, looked up): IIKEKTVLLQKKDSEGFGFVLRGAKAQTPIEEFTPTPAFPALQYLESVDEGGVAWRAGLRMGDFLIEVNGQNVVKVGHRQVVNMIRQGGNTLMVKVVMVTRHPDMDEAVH

T12: TIAM2, Q8IVF5
T12 sequence (Q8IVF5 885-986, limits assumed, looked up): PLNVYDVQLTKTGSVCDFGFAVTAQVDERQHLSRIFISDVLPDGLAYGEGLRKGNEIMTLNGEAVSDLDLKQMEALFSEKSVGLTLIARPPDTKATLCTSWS


Tests used:
Test in all cases: holdup assay
Set-up in all cases: key: below the threshold = too weak to quantify, mostly under pKd 3.1 to 4
Settings in all cases: plain residues with an end cap or a label only (N-terminal biotin on a linker: ado-ado)
ARHGAP21, Q5T5U3 = biological target: T1, ARHGAP21, Q5T5U3
ARHGEF12, Q9NZN5-2 = biological target: ARHGEF12, Q9NZN5-2
ARHGEF12, Q9NZN5-2, sequence (Q9NZN5 other isoform, or with tags, fused parts or gaps): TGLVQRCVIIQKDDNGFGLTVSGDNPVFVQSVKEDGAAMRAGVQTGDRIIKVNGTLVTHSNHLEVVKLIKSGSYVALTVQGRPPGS

DFNB31_1, Q9P202 = biological target: T2, DFNB31_1, Q9P202
DLG1_1, Q12959 = biological target: DLG1_1, Q12959
DLG3_1, Q92796 = biological target: T3, DLG3_1, Q92796
DLG3_3, Q92796 = biological target: T4, DLG3_3, Q92796
GOPC, Q9HD26 = biological target: GOPC, Q9HD26
HTRA2, O43464 = biological target: HTRA2, O43464
HTRA2, O43464, sequence (O43464 355-458): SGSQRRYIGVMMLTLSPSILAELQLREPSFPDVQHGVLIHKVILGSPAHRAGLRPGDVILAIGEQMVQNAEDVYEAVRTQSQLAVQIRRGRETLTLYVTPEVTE

IL16_1, Q14005 = biological target: IL16_1, Q14005
IL16_1, Q14005, sequence (Q14005 210-306): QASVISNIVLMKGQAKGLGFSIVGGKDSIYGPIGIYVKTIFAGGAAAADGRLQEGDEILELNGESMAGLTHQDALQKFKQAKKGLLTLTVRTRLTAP

LDB3, O75112 = biological target: LDB3, O75112
LDB3, O75112, sequence (O75112 1-94): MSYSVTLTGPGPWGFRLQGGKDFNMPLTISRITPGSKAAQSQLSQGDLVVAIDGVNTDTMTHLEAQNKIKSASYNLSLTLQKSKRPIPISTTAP

LIN7B, Q9HAP6 = biological target: T5, LIN7B, Q9HAP6
LNX1_1, Q8TBB1 = biological target: LNX1_1, Q8TBB1
LNX1_1, Q8TBB1, sequence (Q8TBB1 261-371): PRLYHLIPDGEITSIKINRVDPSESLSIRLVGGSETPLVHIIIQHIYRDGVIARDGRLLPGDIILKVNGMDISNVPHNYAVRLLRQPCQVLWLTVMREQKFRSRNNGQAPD

MAGI2_4, Q86UL8 = biological target: MAGI2_4, Q86UL8
MAGI2_4, Q86UL8, sequence (Q86UL8 772-865): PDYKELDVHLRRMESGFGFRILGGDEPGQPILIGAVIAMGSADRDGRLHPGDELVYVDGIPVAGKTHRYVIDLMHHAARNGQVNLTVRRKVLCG

MAST1, Q9Y2H9 = biological target: MAST1, Q9Y2H9
MAST1, Q9Y2H9, sequence (Q9Y2H9 962-1065): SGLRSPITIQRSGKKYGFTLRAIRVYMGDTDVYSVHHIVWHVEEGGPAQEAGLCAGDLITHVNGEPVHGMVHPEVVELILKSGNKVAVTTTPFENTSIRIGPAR

MPDZ_12, O75970 = biological target: T6, MPDZ_12, O75970
MPP7, Q5T2T1 = biological target: T7, MPP7, Q5T2T1
PARD3_3, Q8TEW0 = biological target: PARD3_3, Q8TEW0
PARD3_3, Q8TEW0, sequence (Q8TEW0 582-685): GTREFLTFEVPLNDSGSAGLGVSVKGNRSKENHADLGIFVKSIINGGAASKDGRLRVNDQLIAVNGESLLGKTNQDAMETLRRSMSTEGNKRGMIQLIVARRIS

PDZD7_3, Q9H5P4 = biological target: T8, PDZD7_3, Q9H5P4
PDZRN3_1, Q9UPQ7 = biological target: T9, PDZRN3_1, Q9UPQ7
PTPN3, P26045 = biological target: PTPN3, P26045
PTPN3, P26045, sequence (P26045 505-587): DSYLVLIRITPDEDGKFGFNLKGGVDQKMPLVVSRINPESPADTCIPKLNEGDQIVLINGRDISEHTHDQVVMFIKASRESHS

RHPN1, Q8TCX5 = biological target: T10, RHPN1, Q8TCX5
SCRIB_2, Q14160 = biological target: SCRIB_2, Q14160
SCRIB_2, Q14160, sequence (Q14160 857-960): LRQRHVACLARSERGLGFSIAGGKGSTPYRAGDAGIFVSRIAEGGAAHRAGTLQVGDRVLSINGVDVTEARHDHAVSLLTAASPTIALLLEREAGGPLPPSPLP

SCRIB_3, Q14160 = biological target: SCRIB_3, Q14160
SCRIB_3, Q14160, sequence (Q14160 999-1103): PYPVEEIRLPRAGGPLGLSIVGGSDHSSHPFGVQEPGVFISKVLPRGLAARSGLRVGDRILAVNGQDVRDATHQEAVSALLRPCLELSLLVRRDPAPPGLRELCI

SHANK1, Q9Y566 = biological target: T11, SHANK1, Q9Y566
TIAM2, Q8IVF5 = biological target: T12, TIAM2, Q8IVF5

Row | Binder | pKd (ARHGAP21, Q5T5U3) | pKd (ARHGEF12, Q9NZN5-2) | pKd (DFNB31_1, Q9P202) | pKd (DLG1_1, Q12959) | pKd (DLG3_1, Q92796) | pKd (DLG3_3, Q92796) | pKd (GOPC, Q9HD26) | pKd (HTRA2, O43464) | pKd (IL16_1, Q14005) | pKd (LDB3, O75112) | pKd (LIN7B, Q9HAP6) | pKd (LNX1_1, Q8TBB1) | pKd (MAGI2_4, Q86UL8) | pKd (MAST1, Q9Y2H9) | pKd (MPDZ_12, O75970) | pKd (MPP7, Q5T2T1) | pKd (PARD3_3, Q8TEW0) | pKd (PDZD7_3, Q9H5P4) | pKd (PDZRN3_1, Q9UPQ7) | pKd (PTPN3, P26045) | other results
1 | QFTLRHWLKV [SLC6A3, Q01959] | 4.09 | below the threshold | 3.47 | below the threshold | below the threshold | below the threshold | 3.51 | 4.06 | below the threshold | below the threshold | below the threshold | below the threshold | 3.5 | 4.24 | below the threshold | below the threshold | below the threshold | below the threshold | below the threshold | below the threshold | pKd (RHPN1, Q8TCX5): below the threshold; pKd (SCRIB_2, Q14160): below the threshold; pKd (SCRIB_3, Q14160): 3.51; pKd (SHANK1, Q9Y566): below the threshold; pKd (TIAM2, Q8IVF5): 4.46
2 | PASAKGPLGV [CLDN19, Q8N6F1] | 3.98 | below the threshold | below the threshold | below the threshold | below the threshold | below the threshold | below the threshold | below the threshold | below the threshold | below the threshold | below the threshold | below the threshold | below the threshold | 3.69 | below the threshold | below the threshold | below the threshold | below the threshold | below the threshold | below the threshold | pKd (RHPN1, Q8TCX5): below the threshold; pKd (SCRIB_2, Q14160): below the threshold; pKd (SCRIB_3, Q14160): below the threshold; pKd (SHANK1, Q9Y566): below the threshold; pKd (TIAM2, Q8IVF5): below the threshold
3 | PAPGQHTTQI [STK16, O75716] | below the threshold | 4.38 | 4.57 | 3.56 | below the threshold | below the threshold | 3.77 | below the threshold | below the threshold | below the threshold | 3.92 | below the threshold | 3.5 | 4.37 | below the threshold | below the threshold | below the threshold | 5 | below the threshold | 4.21 | pKd (RHPN1, Q8TCX5): 4.35; pKd (SCRIB_2, Q14160): below the threshold; pKd (SCRIB_3, Q14160): 4.18; pKd (SHANK1, Q9Y566): 3.75; pKd (TIAM2, Q8IVF5): 3.97
4 | DSATVRTYSC [PPFIA1, Q13136] | below the threshold | below the threshold | 3.47 | below the threshold | below the threshold | below the threshold | below the threshold | 3.66 | below the threshold | below the threshold | 3.7 | below the threshold | below the threshold | below the threshold | below the threshold | 3.92 | below the threshold | below the threshold | below the threshold | 3.68 | pKd (RHPN1, Q8TCX5): below the threshold; pKd (SCRIB_2, Q14160): below the threshold; pKd (SCRIB_3, Q14160): below the threshold; pKd (SHANK1, Q9Y566): below the threshold; pKd (TIAM2, Q8IVF5): 4.19
